The subject of this data set is Escherichia coli TOP10. In words: shrunken log2 fold change of peptide-encoding DNA abundance (4.5 h post-induction vs induction); higher = less antimicrobial activity (less host growth inhibition). As to conditions: time post-induction: 4.5 h; library: site-saturation at positions 5, 18, 19, 20.
RRIRCRPPRLPRPRPRPMDPPRP: the “shrunken log2 fold change” value was -0.543.

As for RRIRQRPPRLPRPRPRPWDGPRP, the “shrunken log2 fold change” value worked out at 0.199.

In the case of RRIRERPPRLPRPRPRPFDFPRP, the “shrunken log2 fold change” value was -0.146.

RRIRKRPPRLPRPRPRPTANPRP: the “shrunken log2 fold change” value stood at 0.863.

Take RRIRWRPPRLPRPRPRPYLNPRP: the “shrunken log2 fold change” value was -0.777.

Take RRIRMRPPRLPRPRPRPGNAPRP: the “shrunken log2 fold change” value is 0.573.

Turning to RRIRPRPPRLPRPRPRPTAQPRP, the “shrunken log2 fold change” value is 0.357.

Turning to RRIRGRPPRLPRPRPRPSVRPRP, the “shrunken log2 fold change” value amounted to 0.529.

For the sequence RRIRWRPPRLPRPRPRPNDRPRP, the “shrunken log2 fold change” value is 0.174.

With RRIRLRPPRLPRPRPRPWVVPRP, the “shrunken log2 fold change” value worked out at 0.0937.

For the sequence RRIRCRPPRLPRPRPRPTDEPRP, the “shrunken log2 fold change” value is 2.52.

For RRIRSRPPRLPRPRPRPFSEPRP, the “shrunken log2 fold change” value stood at 0.00901.

For RRIRFRPPRLPRPRPRPPRSPRP, the “shrunken log2 fold change” value was found to be 0.488.

As to RRIRTRPPRLPRPRPRPFPYPRP, the “shrunken log2 fold change” value is -0.00797.

As to RRIRIRPPRLPRPRPRPFEEPRP, the “shrunken log2 fold change” value was -0.569.

Consider RRIRPRPPRLPRPRPRPFLCPRP, for which the “shrunken log2 fold change” value was -0.0669.

RRIRPRPPRLPRPRPRPIFCPRP: the “shrunken log2 fold change” value was -0.0959.

Turning to RRIRWRPPRLPRPRPRPMSCPRP, the “shrunken log2 fold change” value is -0.256.

RRIRFRPPRLPRPRPRPTRPPRP: the “shrunken log2 fold change” value amounted to 0.776.

For the sequence RRIRQRPPRLPRPRPRPRSSPRP, the “shrunken log2 fold change” value worked out at 0.0377.

Take RRIRRRPPRLPRPRPRPIIWPRP: the “shrunken log2 fold change” value was -0.0862.

As for RRIRTRPPRLPRPRPRPSAAPRP, the “shrunken log2 fold change” value is 0.186.

Take RRIRHRPPRLPRPRPRPMWYPRP: the “shrunken log2 fold change” value is -0.0997.

Consider RRIRHRPPRLPRPRPRPKRWPRP, for which the “shrunken log2 fold change” value is 0.293.

For RRIRLRPPRLPRPRPRPSCLPRP, the “shrunken log2 fold change” value is -0.392.

As for RRIRQRPPRLPRPRPRPHTGPRP, the “shrunken log2 fold change” value was -0.18.

In the case of RRIRGRPPRLPRPRPRPMMCPRP, the “shrunken log2 fold change” value was found to be 0.0367.

Turning to RRIRFRPPRLPRPRPRPKGKPRP, the “shrunken log2 fold change” value amounted to 0.195.

For the sequence RRIRHRPPRLPRPRPRPKDSPRP, the “shrunken log2 fold change” value worked out at 0.0292.

With RRIRARPPRLPRPRPRPFIAPRP, the “shrunken log2 fold change” value came out at 0.0626.

Turning to RRIRCRPPRLPRPRPRPINHPRP, the “shrunken log2 fold change” value is -0.607.

As to RRIRRRPPRLPRPRPRPRWTPRP, the “shrunken log2 fold change” value was 0.453.

Regarding RRIRLRPPRLPRPRPRPFSEPRP, the “shrunken log2 fold change” value is -0.0881.

For RRIRYRPPRLPRPRPRPHQEPRP, the “shrunken log2 fold change” value is -0.0108.

Turning to RRIRWRPPRLPRPRPRPCVTPRP, the “shrunken log2 fold change” value is 0.024.

For RRIRARPPRLPRPRPRPVRPPRP, the “shrunken log2 fold change” value stood at 0.602.

On to RRIRRRPPRLPRPRPRPSNPPRP, for which the “shrunken log2 fold change” value was -0.203.

Take RRIRERPPRLPRPRPRPCMRPRP: the “shrunken log2 fold change” value is -0.0898.

Consider RRIRCRPPRLPRPRPRPGNFPRP, for which the “shrunken log2 fold change” value was -0.0984.

For the sequence RRIRYRPPRLPRPRPRPVHRPRP, the “shrunken log2 fold change” value was -0.462.

As for RRIRLRPPRLPRPRPRPQCLPRP, the “shrunken log2 fold change” value was -0.455.

Take RRIRERPPRLPRPRPRPDGWPRP: the “shrunken log2 fold change” value came out at 0.0267.

For RRIRHRPPRLPRPRPRPCPPPRP, the “shrunken log2 fold change” value was -0.845.

With RRIRHRPPRLPRPRPRPFARPRP, the “shrunken log2 fold change” value was -0.107.

Consider RRIRMRPPRLPRPRPRPRCDPRP, for which the “shrunken log2 fold change” value was 0.397.

For RRIRERPPRLPRPRPRPCKTPRP, the “shrunken log2 fold change” value amounted to 0.0029.

For RRIRQRPPRLPRPRPRPKTIPRP, the “shrunken log2 fold change” value is -0.184.

On to RRIRERPPRLPRPRPRPVVSPRP, for which the “shrunken log2 fold change” value was -0.0681.

As to RRIRTRPPRLPRPRPRPQVHPRP, the “shrunken log2 fold change” value is -0.221.

With RRIRERPPRLPRPRPRPCMWPRP, the “shrunken log2 fold change” value is -0.233.

Take RRIRSRPPRLPRPRPRPCALPRP: the “shrunken log2 fold change” value is -0.242.

On to RRIRLRPPRLPRPRPRPVHVPRP, for which the “shrunken log2 fold change” value was -0.0937.

RRIRHRPPRLPRPRPRPFMQPRP: the “shrunken log2 fold change” value is -0.348.

For RRIRPRPPRLPRPRPRPYGAPRP, the “shrunken log2 fold change” value was -0.306.

Consider RRIRFRPPRLPRPRPRPGEPPRP, for which the “shrunken log2 fold change” value was 0.118.

Turning to RRIRKRPPRLPRPRPRPQVTPRP, the “shrunken log2 fold change” value is -0.0535.

Turning to RRIRKRPPRLPRPRPRPFFMPRP, the “shrunken log2 fold change” value is 0.112.

RRIRIRPPRLPRPRPRPCKAPRP: the “shrunken log2 fold change” value is -0.181.

As to RRIRNRPPRLPRPRPRPPNNPRP, the “shrunken log2 fold change” value is -0.598.

Take RRIRVRPPRLPRPRPRPQDLPRP: the “shrunken log2 fold change” value is -0.0193.

Turning to RRIRERPPRLPRPRPRPDWRPRP, the “shrunken log2 fold change” value was -0.0634.

On to RRIRDRPPRLPRPRPRPHYEPRP, for which the “shrunken log2 fold change” value is -0.0202.

With RRIRKRPPRLPRPRPRPYTGPRP, the “shrunken log2 fold change” value is -0.318.

In the case of RRIRDRPPRLPRPRPRPDDRPRP, the “shrunken log2 fold change” value turned out to be 0.108.

For RRIRKRPPRLPRPRPRPGGFPRP, the “shrunken log2 fold change” value stood at 0.223.

Regarding RRIRSRPPRLPRPRPRPQSNPRP, the “shrunken log2 fold change” value is -0.613.

For the sequence RRIRTRPPRLPRPRPRPVRPPRP, the “shrunken log2 fold change” value was determined as 0.779.

Take RRIRSRPPRLPRPRPRPHYVPRP: the “shrunken log2 fold change” value was -0.488.

As to RRIRRRPPRLPRPRPRPMSNPRP, the “shrunken log2 fold change” value is -0.0453.

With RRIRIRPPRLPRPRPRPCQLPRP, the “shrunken log2 fold change” value is -0.812.

For the sequence RRIRLRPPRLPRPRPRPPCNPRP, the “shrunken log2 fold change” value was -0.126.

RRIRYRPPRLPRPRPRPHNSPRP: the “shrunken log2 fold change” value was -0.753.

For the sequence RRIRPRPPRLPRPRPRPELSPRP, the “shrunken log2 fold change” value was 0.46.

Consider RRIRERPPRLPRPRPRPSDTPRP, for which the “shrunken log2 fold change” value is -0.287.

For the sequence RRIRYRPPRLPRPRPRPDNHPRP, the “shrunken log2 fold change” value is -0.135.

For RRIRTRPPRLPRPRPRPTDLPRP, the “shrunken log2 fold change” value is -0.0718.

RRIRLRPPRLPRPRPRPMWSPRP: the “shrunken log2 fold change” value was -0.0258.

Consider RRIRARPPRLPRPRPRPMLYPRP, for which the “shrunken log2 fold change” value was found to be 0.249.

For RRIRPRPPRLPRPRPRPECRPRP, the “shrunken log2 fold change” value was 0.56.

With RRIRPRPPRLPRPRPRPWGLPRP, the “shrunken log2 fold change” value was 0.253.

Regarding RRIRWRPPRLPRPRPRPKKWPRP, the “shrunken log2 fold change” value worked out at 0.254.

On to RRIRNRPPRLPRPRPRPADPPRP, for which the “shrunken log2 fold change” value was -0.0809.

Regarding RRIRQRPPRLPRPRPRPSHHPRP, the “shrunken log2 fold change” value was found to be 0.0184.

RRIRSRPPRLPRPRPRPGAEPRP: the “shrunken log2 fold change” value was 0.606.

For the sequence RRIRRRPPRLPRPRPRPCWDPRP, the “shrunken log2 fold change” value was 0.234.

Take RRIRVRPPRLPRPRPRPNEDPRP: the “shrunken log2 fold change” value was -0.168.

Take RRIRSRPPRLPRPRPRPNYKPRP: the “shrunken log2 fold change” value was -0.546.

For RRIRARPPRLPRPRPRPISWPRP, the “shrunken log2 fold change” value came out at 0.508.

In the case of RRIRHRPPRLPRPRPRPFCSPRP, the “shrunken log2 fold change” value is -0.171.

As to RRIRCRPPRLPRPRPRPCPFPRP, the “shrunken log2 fold change” value is -0.332.

With RRIRSRPPRLPRPRPRPKIVPRP, the “shrunken log2 fold change” value is -0.265.
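Note: peptides expressed intracellularly from a pBAD plasmid library in pooled LB shake-flask culture, induced with 0.3% L-arabinose, DNA abundance read by NGS, three biological replicates, DESeq2 with apeglm shrinkage.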
